The values that follow come from ChEMBL document CHEMBL1145552, “Substrate specificity and diastereoselectivity of strictosidine glucosidase, a key enzyme in monoterpene indole alkaloid biosynthesis” (Bioorg Med Chem Lett, 2008).

For orientation: Km means the concentration of substrate that gives half-maximal velocity. The term Vmax denotes the rate approached at saturating substrate.

Data set [1] has as its target T1, Strictosidine beta-glucosidase (Catharanthus roseus) (UniProt Q9M7N7).
T1 sequence (whole entry): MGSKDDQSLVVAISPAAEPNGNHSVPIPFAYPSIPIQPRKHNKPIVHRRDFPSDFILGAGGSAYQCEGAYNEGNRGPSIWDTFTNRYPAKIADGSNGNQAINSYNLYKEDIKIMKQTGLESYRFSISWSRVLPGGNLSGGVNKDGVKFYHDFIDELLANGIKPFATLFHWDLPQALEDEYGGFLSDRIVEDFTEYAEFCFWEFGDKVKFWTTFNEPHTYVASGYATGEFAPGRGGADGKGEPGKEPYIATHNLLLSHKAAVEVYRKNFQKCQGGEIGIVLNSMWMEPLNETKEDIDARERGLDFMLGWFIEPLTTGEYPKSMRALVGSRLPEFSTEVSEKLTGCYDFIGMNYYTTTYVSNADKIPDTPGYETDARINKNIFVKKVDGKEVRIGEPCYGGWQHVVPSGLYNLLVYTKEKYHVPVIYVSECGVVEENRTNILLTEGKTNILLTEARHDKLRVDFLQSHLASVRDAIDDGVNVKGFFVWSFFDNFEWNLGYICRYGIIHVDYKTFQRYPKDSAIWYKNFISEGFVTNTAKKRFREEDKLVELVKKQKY
The data set can be described thus: Ratio of relative Vmax to K0.5 of Catharanthus roseus strictosidine glucosidase.

Substrate in data set [2]: C=C[C@H]1[C@H](O[C@@H]2O[C@H](CO)[C@@H](O)[C@H](O)[C@H]2O)OC=C(C(=O)OC)[C@H]1C[C@@H]1NCCc2c1[nH]c1ccccc21
Nature of the data set: (§1) Activity of Catharanthus roseus strictosidine glucosidase.

Substrate in data set [3]: C=C[C@H]1[C@H](O[C@@H]2O[C@H](CO)[C@@H](O)[C@H](O)[C@H]2O)OC=C(C(=O)OC)[C@H]1C[C@@H]1NCCc2c1[nH]c1cc(F)ccc21
The data set is described as §1.

Substrate in data set [4]: C=C[C@H]1[C@H](O[C@@H]2O[C@H](CO)[C@@H](O)[C@H](O)[C@H]2O)OC=C(C(=O)OC)[C@H]1C[C@@H]1NCCc2c1[nH]c1c(C)cccc21
The data set is described as §1.

Substrate in data set [5]: C=C[C@H]1[C@H](O[C@@H]2O[C@H](CO)[C@@H](O)[C@H](O)[C@H]2O)OC=C(C(=O)OC)[C@H]1C[C@@H]1NCCc2c1[nH]c1cc(OC)ccc21
The data set is described as §1.

Substrate in data set [6]: C=C[C@H]1[C@H](O[C@@H]2O[C@H](CO)[C@@H](O)[C@H](O)[C@H]2O)OC=C(C(=O)OC)[C@H]1C[C@@H]1NCCc2c1[nH]c1ccc(C)cc21
The description is as §1.

Substrate in data set [7]: C=C[C@H]1[C@H](O[C@@H]2O[C@H](CO)[C@@H](O)[C@H](O)[C@H]2O)OC=C(C(=O)OC)[C@H]1C[C@@H]1NCCc2c1[nH]c1ccc(F)cc21
The data set is described as §1.

Substrate in data set [8]: C=C[C@H]1[C@H](O[C@@H]2O[C@H](CO)[C@@H](O)[C@H](O)[C@H]2O)OC=C(C(=O)OC)[C@H]1C[C@@H]1NCCc2c1[nH]c1cccc(C)c21
Described as §1.

Substrate in data set [9]: C=C[C@H]1[C@H](O[C@@H]2O[C@H](CO)[C@@H](O)[C@H](O)[C@H]2O)OC=C(C(=O)OC)[C@H]1C[C@@H]1NCCc2c1[nH]c1ccc(OC)cc21
The description is as §1.

Substrate in data set [10]: C=C[C@H]1[C@H](O[C@@H]2O[C@H](CO)[C@@H](O)[C@H](O)[C@H]2O)OC=C(C(=O)OC)[C@H]1C[C@@H]1NCCc2c1[nH]c1cc(C)ccc21
The description is as §1.

As for `C=C[C@H]1[C@H](O[C@@H]2O[C@H](CO)[C@@H](O)[C@H](O)[C@H]2O)OC=C(C(=O)OC)[C@H]1C[C@@H]1NCCc2c1[nH]c1ccccc21`, in [1], the Ratio stood at 1 min⁻¹.
For `C=C[C@H]1[C@H](O[C@@H]2O[C@H](CO)[C@@H](O)[C@H](O)[C@H]2O)OC=C(C(=O)OC)[C@H]1C[C@@H]1NCCc2c1[nH]c1cccc(C)c21`, the Ratio in data set [1] came to 0.2 min⁻¹.
For the molecule `C=C[C@H]1[C@H](O[C@@H]2O[C@H](CO)[C@@H](O)[C@H](O)[C@H]2O)OC=C(C(=O)OC)[C@H]1C[C@@H]1NCCc2c1[nH]c1ccc(F)cc21`, the Ratio in data set [1] was determined as 0.7 min⁻¹.
For `C=C[C@H]1[C@H](O[C@@H]2O[C@H](CO)[C@@H](O)[C@H](O)[C@H]2O)OC=C(C(=O)OC)[C@H]1C[C@@H]1NCCc2c1[nH]c1cc(F)ccc21`, the Ratio in [1] was 0.7 min⁻¹.
With `C=C[C@H]1[C@H](O[C@@H]2O[C@H](CO)[C@@H](O)[C@H](O)[C@H]2O)OC=C(C(=O)OC)[C@H]1C[C@@H]1NCCc2c1[nH]c1ccc(C)cc21`, the Ratio in [1] was found to be 0.6 min⁻¹.
On the same count and under the same terms, in the case of `C=C[C@H]1[C@H](O[C@@H]2O[C@H](CO)[C@@H](O)[C@H](O)[C@H]2O)OC=C(C(=O)OC)[C@H]1C[C@@H]1NCCc2c1[nH]c1cc(C)ccc21` it was 0.5 min⁻¹.
The same measure, in the same setting: the figure for `C=C[C@H]1[C@H](O[C@@H]2O[C@H](CO)[C@@H](O)[C@H](O)[C@H]2O)OC=C(C(=O)OC)[C@H]1C[C@@H]1NCCc2c1[nH]c1ccc(OC)cc21` is 0.3 min⁻¹; for `C=C[C@H]1[C@H](O[C@@H]2O[C@H](CO)[C@@H](O)[C@H](O)[C@H]2O)OC=C(C(=O)OC)[C@H]1C[C@@H]1NCCc2c1[nH]c1c(C)cccc21` it is 0.3 min⁻¹; for `C=C[C@H]1[C@H](O[C@@H]2O[C@H](CO)[C@@H](O)[C@H](O)[C@H]2O)OC=C(C(=O)OC)[C@H]1C[C@@H]1NCCc2c1[nH]c1cc(OC)ccc21` it is 0.2 min⁻¹.

B1: Strictosidine beta-glucosidase (Catharanthus roseus), Q9M7N7 (protein)
chain: T1 sequence (whole entry)
Turning to B1, the Km in [2] came out at 220 µM; in data set [3], 120 µM; in [4], 140 µM; in data set [5], 430 µM; in data set [6], 71 µM; in data set [7], 150 µM. The values for the Km in data set [8], in [9] and in data set [10] were 220 µM, 370 µM and 92 µM, respectively. For the same molecule, the maximal velocity (Vmax) in data set [2] is 0.078 mM/min; in data set [3], 0.032 mM/min; in [4], 0.016 mM/min; in data set [5], 0.037 mM/min; in data set [6] it was 0.016 mM/min; in data set [7] it was 0.038 mM/min. In addition, the Vmax in [8] was determined as 0.018 mM/min; in [9], 0.035 mM/min; in data set [10], 0.017 mM/min.
